Assay results reported in patent publication EP4039818A1.

Biological target: a-sACE2 (enzymatically active soluble ACE2) as measured in Example 7b (UniProt Q9BYF1)
Test: cell-based or functional assay

goat polyclonal anti-human ACE2 antibody (R&D Systems, #AF933)
enzymatic activity measurement performed according to the enzymatic activity assay of example 3a: > 5 µg/mL
